Where no end group is shown, it is not given here. Atto 488 = fluorescent body linked to the N terminus

In US10858688 (KYOTO UNIVERSITY, dated 2020) one finds half-life data, which are given here for one molecule.

This test deals with T1, actin filament in fixed Xenopus laevis XTC cells (Xenopus laevis).
T1 construct: whole, on cells; Polymer of actin in fixed cells
Put plainly: speckle lifetime distribution in fixed XTC cells, 10 ms/frame at 100 Hz, single exponential fit (FIG. 9a).

B1: Lifeact peptide (sequence number 19) with an Atto 488 fluorescent body linked to an N terminus (peptide)
peptide: {Atto 488}-MGVADLIKKFESISKEE
notes: Purchased from Sigma-Aldrich; also called Atto488-Lifeact; Atto 488-Lifeact
The molecule B1 registered a half-life of 0.023 s.

The half-life is the time needed for the level to fall by half in the phase considered.
